Data as given in patent US20190389933A1 (published 2019).

Columns and labels:
[1] = target: histidine-tagged PD-1 (UniProt Q15116 25-167); assay: Octet
[2] = target: 21480B; assay: Octet

Sequence of histidine-tagged PD-1 (Q15116 25-167): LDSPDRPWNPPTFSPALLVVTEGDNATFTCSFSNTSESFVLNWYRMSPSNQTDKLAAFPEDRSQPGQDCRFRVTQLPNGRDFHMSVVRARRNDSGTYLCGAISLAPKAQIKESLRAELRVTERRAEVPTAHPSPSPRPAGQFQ

| Binder | Kd [1] [nM] | Kd [2] [nM] |
| --- | --- | --- |
| XENP22553, humanized variant 1C11[PD-1]_H3L3 of anti-PD-1 clone 1C11 (antibody, V domains shown) VH: QIQLVQSGSELKKPGASVKVSCKASGYTFTHYGMNWVRQAPGQGLEWMGWINTYTGEPTYADGFTGRFVFSLDTSVSTAYLQISSLKAEDTAVYFCARDYYGSSPYWGQGTLVTVSS VL: DVLMTQSPDSLAVSLGERATINCKSSQSIVHSNGNTYLEWYQQKPGQSPKLLIYKVSNRFSGVPDRFSGSGSGTDFTLTISSLQAEDVAVYYCFQGSHVPNTFGGGTKVEIKR | 19.1 | – |
| IL2Rbeta (receptor) AVNGTSQFTCFYNSRANISCVWSQDGALQDTSCQVHAWPDRRRWNQTCELLPVSQASWACNLILGAPDSQKLTTVDIVTLRVLCREGVRWRVMAIQDFKPFENLRLMAPISLQVVHVETHRCNISWEISQASHYFERHLEFEARTLSPGHTWEEAPLLTLKQKQEWICLETLTPDTQYEFQVRVKPLQGEFTTWSPWSQPLAFRTKPAALGKD | – | 8.1 |
